Laboratory results as given in US20070072210A1 (published 2007).

B1: FLAG-tagged BAAT1 (full length) (other)
chain: MDPECAQLLPALCAVLVDPGQPVADDTCLEKLLDWFKTVTEGESSVVLLQEHPCLVELLSHVLKVQDLSSGVLSFSLRLAGTFAAQENCFQYLQQGELLPGLFGEPGPLGRATWAVPTVRSGWIQGLRSLAQHPSALRFLADHGAVDTIFSLQGDSSLFVASAASQLLVHVLALSMRGGAEGQPCLPGGDWPACAQKIMDHVEESLCSAATPKVTQALNVLTTTFGRCQSPWTEALWVRLSPRVACLLERDPIPAAHSFVDLLLCVARSPVFSSSDGSLWETVARALSCLGPTHMGPLALGILKLEHCPQALRTQAFQVLLQPLACVLKATVQAPGPPGLLDGTADDATTVDTLLASKSSCAGLLCRTLAHLEELQPLPQRPSPWPQASLLGATVTVLRLCDGSAAPASSVGGHLCGTLAGCVRVQRAALDFLGTLSQGTGPQELVTQALAVLLECLESPGSSPTVLKKAFQATLRWLLSSPKTPGCSDLGPLIPQFLRELFPVLQKRLCHPCWEVRDSALEFLTQLSRHWGGQADFRCALLASEVPQLALQLLQDPESYVRASAVTAMGQLSSQGLHAPTSPEHAEARQSLFLELLHILSVDSEGFPRRAVMQVFTEWLRDGHADAAQDTEQFVATVLQAASRDLDWEVRAQGLELALVFLGQTLGPPRTHCPYAVALPEVAPAQPLTEALRALCHVGLFDFAFCALFDCDRPVAQKSCDLLLFLRDKIASYSSLREARGSPNTASAEATLPRWRAGEQAQPPGDQEPEAVLAMLRSLDLEGLRSTLAESSDHVEKSPQSLLQDMLATGGFLQGDEADCY
notes: Transiently expressed in 293T cells; the clone used was IMAGE BC015632; also called FLAG-BAAT1; not shown: FLAG tag

Assays:
[1] = target: T1, BRCA1 (endogenous, from human cell lysates) (human, UniProt P38398 1-1863); test: immunoprecipitation with anti BRCA1 21A1 from 293T cells, anti FLAG blot
T1 construct: Endogenous cellular protein immunoprecipitated with anti BRCA1 antibodies C-20 or 21A1; also called breast cancer susceptibility gene 1 protein; endogenous BRCA1
Excerpt: (§1) GST-BRCA1 fragments were precipitated with GSH beads and samples were immunoblotted with anti FLAG antibody. […] After immunoprecipitation with anti BRCA1 21A1 antibody, samples were immunoblotted with FLAG antibody. […] NS: non-specific signals. […] Two different anti BRCA1 antibodies (C-20 and 21A1) and anti ATM antibodies (N-17 and 2C1) were used for the assay.

[2] = target: T1, BRCA1 (endogenous, from human cell …); test: co-immunoprecipitation of endogenous proteins from HeLa cells
Protocol: as §1
(§2) Co-Immunoprecipitation and GST Pull-Down Assays: HeLa or NMEs cells were lysed for 30 min in 500 ml of lysis buffer (50 mM Tris-HCl pH 7.5, 100 mM NaCl, 0.5% NP-40, 0.5% DOC, 5 mM EDTA, and protease inhibitors: 100 mg/ml PMSF, 2 mg/ml Aprotinin, 2 mg/ml Leupeptin). One milligram of total cell lysates was incubated with 10 mg/ml of ethidium bromide and the primary antibody for 3 h followed by incubation with either Protein A or Protein G agarose beads overnight at 4° C. The immunocomplexes were separated on SDS-PAGE gels and visualized by Western blotting. […] After pulldown with GSH beads, samples were separated in SDS-polyacrylamide gel and visualized by Western blotting.

[3] = target: B1; test: GST pulldown from co-transfected 293T cells, anti FLAG blot
Protocol: as §1, §2

Row | binding result [1] | Binder | further results
1 | binds | FLAG-tagged C-terminal BAAT1 (amino acids 176-821) (other, Expressed in 293T cells; co-precipitated with BRCA1 by the anti BRCA1 21A1 antibody and blotted with anti FLAG; not shown: FLAG tag) MRGGAEGQPCLPGGDWPACAQKIMDHVEESLCSAATPKVTQALNVLTTTFGRCQSPWTEALWVRLSPRVACLLERDPIPAAHSFVDLLLCVARSPVFSSSDGSLWETVARALSCLGPTHMGPLALGILKLEHCPQALRTQAFQVLLQPLACVLKATVQAPGPPGLLDGTADDATTVDTLLASKSSCAGLLCRTLAHLEELQPLPQRPSPWPQASLLGATVTVLRLCDGSAAPASSVGGHLCGTLAGCVRVQRAALDFLGTLSQGTGPQELVTQALAVLLECLESPGSSPTVLKKAFQATLRWLLSSPKTPGCSDLGPLIPQFLRELFPVLQKRLCHPCWEVRDSALEFLTQLSRHWGGQADFRCALLASEVPQLALQLLQDPESYVRASAVTAMGQLSSQGLHAPTSPEHAEARQSLFLELLHILSVDSEGFPRRAVMQVFTEWLRDGHADAAQDTEQFVATVLQAASRDLDWEVRAQGLELALVFLGQTLGPPRTHCPYAVALPEVAPAQPLTEALRALCHVGLFDFAFCALFDCDRPVAQKSCDLLLFLRDKIASYSSLREARGSPNTASAEATLPRWRAGEQAQPPGDQEPEAVLAMLRSLDLEGLRSTLAESSDHVEKSPQSLLQDMLATGGFLQGDEADCY | 
2 | binds | B1 | 
3 |  | BAAT1 (endogenous, from human cell lysates) (other, Endogenous cellular protein detected with the anti-BAAT1 antibody; also called endogenous BAAT1; hBAAT1) MDPECAQLLPALCAVLVDPGQPVADDTCLEKLLDWFKTVTEGESSVVLLQEHPCLVELLSHVLKVQDLSSGVLSFSLRLAGTFAAQENCFQYLQQGELLPGLFGEPGPLGRATWAVPTVRSGWIQGLRSLAQHPSALRFLADHGAVDTIFSLQGDSSLFVASAASQLLVHVLALSMRGGAEGQPCLPGGDWPACAQKIMDHVEESLCSAATPKVTQALNVLTTTFGRCQSPWTEALWVRLSPRVACLLERDPIPAAHSFVDLLLCVARSPVFSSSDGSLWETVARALSCLGPTHMGPLALGILKLEHCPQALRTQAFQVLLQPLACVLKATVQAPGPPGLLDGTADDATTVDTLLASKSSCAGLLCRTLAHLEELQPLPQRPSPWPQASLLGATVTVLRLCDGSAAPASSVGGHLCGTLAGCVRVQRAALDFLGTLSQGTGPQELVTQALAVLLECLESPGSSPTVLKKAFQATLRWLLSSPKTPGCSDLGPLIPQFLRELFPVLQKRLCHPCWEVRDSALEFLTQLSRHWGGQADFRCALLASEVPQLALQLLQDPESYVRASAVTAMGQLSSQGLHAPTSPEHAEARQSLFLELLHILSVDSEGFPRRAVMQVFTEWLRDGHADAAQDTEQFVATVLQAASRDLDWEVRAQGLELALVFLGQTLGPPRTHCPYAVALPEVAPAQPLTEALRALCHVGLFDFAFCALFDCDRPVAQKSCDLLLFLRDKIASYSSLREARGSPNTASAEATLPRWRAGEQAQPPGDQEPEAVLAMLRSLDLEGLRSTLAESSDHVEKSPQSLLQDMLATGGFLQGDEADCY | binding result [2]: binds
4 |  | GST-tagged BRCA1 BRCT domains, breast cancer-associated mutant Met1775Arg (other, UniProt P38398 1560-1863, looked up, domain: BRCT domains; also called M1775R; not shown: GST tag) GTPYLESGISLFSDDPESDPSEDRAPESARVGNIPSSTSALKVPQLKVAESAQSPAAAHTTDTAGYNAMEESVSREKPELTASTERVNKRMSMVVSGLTPEEFMLVYKFARKHHITLTNLITEETTHVVMKTDAEFVCERTLKYFLGIAGGKWVVSYFWVTQSIKERKMLNEHDFEVRGDVVNGRNHQGPKRARESQDRKIFRGLEICCYGPFTNRPTDQLEWMVQLCGASVVKELSSFTLGTGVHPIVVVQPDAWTEDNGFHAIGQMCEAPVVTREWVLDSVALYQCQELDTYLIPQIPHSHY | binding result [3]: no binding
